{
  "source": "paper PMC3606321",
  "about": "“Identification and characterization of two distinct PPP1R2 isoforms in human spermatozoa” (BMC Cell Biology, 2013)",
  "binders": {"B1": {"name": "His-PPP1R2P3 (natural protein, human, UniProt Q6NXS1 1-205, looked up)", "chain": "MAASTASHRPIKGILKNKTSTTSSMVASAEQPRRSVDEELSKKSQKWDEINILATYHPADKGYGLMKIDEPSPPYHSMMGDDEDACRDTETTEAMAPDILAKKLAAAEGLEPKYRIQEQESSGEEDSDLSPEEREKKRQFEMRRKLHYNEGLNIKLARQLISKDLHDDDEDEEMLETADGESMNTEESNQGSTPSDQQQNKLRSS"}},
  "key": {"[1]": {"target": "purified recombinant PPP1CC1 (UniProt P36873 1-323)", "sequence (P36873 whole entry)": "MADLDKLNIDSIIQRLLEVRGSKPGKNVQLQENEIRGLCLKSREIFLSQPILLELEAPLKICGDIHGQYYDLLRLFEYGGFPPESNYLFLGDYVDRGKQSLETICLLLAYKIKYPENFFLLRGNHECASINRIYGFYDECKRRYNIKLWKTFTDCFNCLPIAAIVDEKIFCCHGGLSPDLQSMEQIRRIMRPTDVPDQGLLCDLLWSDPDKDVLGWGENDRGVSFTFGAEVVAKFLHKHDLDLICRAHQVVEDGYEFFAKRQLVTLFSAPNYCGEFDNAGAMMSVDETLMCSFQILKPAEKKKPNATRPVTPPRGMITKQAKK", "test": "cell-based or functional assay"}, "[2]": {"target": "purified recombinant PPP1CC2 (UniProt P36873-2 1-337)", "sequence (P36873 other isoform, or with tags, fused parts or gaps)": "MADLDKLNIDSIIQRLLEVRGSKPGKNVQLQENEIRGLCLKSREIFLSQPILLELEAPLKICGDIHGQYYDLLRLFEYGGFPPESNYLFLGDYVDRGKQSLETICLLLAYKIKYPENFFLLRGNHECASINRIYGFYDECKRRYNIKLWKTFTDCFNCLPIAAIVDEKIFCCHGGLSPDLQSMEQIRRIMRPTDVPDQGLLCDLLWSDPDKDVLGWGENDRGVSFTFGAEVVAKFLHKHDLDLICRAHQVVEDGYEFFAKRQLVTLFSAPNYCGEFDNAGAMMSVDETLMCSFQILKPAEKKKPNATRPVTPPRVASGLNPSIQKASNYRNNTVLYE", "test": "cell-based or functional assay"}},
  "data": [
    {"binder": "B1", "values": [
      {"measurement": "IC50 of inhibition of PPP1CC1 in the phosphorylase phosphatase assay ([32P]phosphorylase a as substrate)", "setting": "[1]", "value": 0.73, "unit": "nM"},
      {"measurement": "IC50 of inhibition of PPP1CC2 in the phosphorylase phosphatase assay ([32P]phosphorylase a as substrate)", "setting": "[2]", "value": 0.09, "unit": "nM"}
    ]}
  ]
}
